Assays:
[1] = molecular target: T1, IGF-IR on MCF7 cells (Homo sapiens, UniProt P08069); assay: IGF-IR surface receptor density by FACS; type: cell-based; conditions: MCF7 cells incubated at 4° C.
T1 construct: endogenous in cells
Description: IGF-IR surface receptor density was determined by FACS. […] Cells were washed in ice-cold PBS/5% BSA twice, and 1×10^6 cells were aliquoted to staining tubes and placed on ice. An IGF-IR alpha-polypeptide specific, non-blocking mouse monoclonal antibody (Ab-1, NeoMarkers, Fremont, Calif.), was then incubated with cells at 4° C. for 2 h. After PBS/BSA washes, cells were incubated with anti-mouse IgG phycoerythrin-conjugated secondary antibody (PharMingen, BD Biosciences) for 1 h on ice. After PBS/BSA wash, cells were analyzed by fluorescence-activated cell-sorting assay using a FACSvantage SE flow cytometer (BD Bioscience).

[2] = molecular target: T2, IGF-IR (Homo sapiens, UniProt P08069); assay: Human IGF-IR binding ELISA; design: recombinant extracellular portion of human IGF-IR was used to screen; conditions: full IgG; 50% binding relative to saturation; read-out: Binding (ED50)
Description: (§1) Binding results were determined by human IGF-IR ELISA and represent the concentration of titered antibody necessary to achieve 50% binding relative to saturation. Blocking results represent the level of antibody necessary to inhibit 50% binding of ^125I-IGF-I ligand to immobilized human IGF-IR. Affinity was determined by BIAcore analysis according to manufacturer's specifications (Pharmacia BIACORE 3000). Soluble IGF-IR was immobilized on the sensor chips and antibody binding kinetics determined.

[3] = molecular target: T2, IGF-IR; assay: BIAcore binding kinetics on immobilized soluble IGF-IR; design: recombinant extracellular portion of human IGF-IR was used to screen; conditions: full IgG, BIACORE 3000
Description: Binding kinetic analysis was performed on 2F8 IgG using a BIAcore unit.
as §1

[4] = tested on: MAPK; assay: IGF-I mediated MAPK phosphorylation, western blot; type: cell-based, human; conditions: MCF7 cells; IGF-I stimulated
Description: To visualize the inhibitory effect of the anti-IGF-IR antibodies on IGF-I signaling, receptor auto-phosphorylation and downstream effector molecule phosphorylation analysis was performed in the presence or absence of antibody A12 or 2F8. The MCF7 human breast cancer cell line was selected for use due to its high IGF-IR density. Cells were plated into 10 cm or 6 well culture dishes and grown to 70-80% confluence. The monolayers were then washed twice in PBS and cultured overnight in serum free defined medium. Anti-IGF-IR antibody was then added in fresh serum-free media (100 nM-10 nM) and incubated cells 30 minutes before addition of ligand (10 nM). Cells were incubated with ligand for 10 minutes, then placed on ice and washed with ice-cold PBS. […] Tyrosine phosphorylated protein was detected on the blot using an anti-p-tyrosine antibody (Cell Signaling #9411) and an anti-mouse-HRP secondary antibody. IGF-IR was detected with monoclonal antibody C-20 (Santa Cruz). For Akt phosphorylation, phospho-Akt was detected with antibody #559029 and total Akt with #559028 (BD Pharmingen). For MAPK phosphorylation, phospho-p44/42 was detected with #9101 and total p44/42 with #9102 (Cell Signaling Tech.). […]

[5] = tested on: MCF7 human breast cancer; assay: MCF7 xenograft, A12 monotherapy; type: in vivo, nude mice
Description: In order to assess its activity on MCF7 tumor growth in vivo, a mouse xenograft tumor model was utilized. MCF7 cells were originally isolated from an estrogen-dependent human tumor and require exogenously added estrogen for maintenance and growth in vivo. Nude mice were implanted with biodegradable estrogen pellets (0.72 mg 17-β-estradiol/pellet, 60 day release). In addition, at the time of subcutaneous tumor cell injection, the mice were also injected in the right flank subcutaneously with 0.5 mg of estradiol in a 50 μl suspension of sesame seed oil. Tumors were allowed to establish a size of approximately 150 mm^3 before antibody treatment was initiated. Antibody was injected at 1 mg, 100 μg, and 10 μg doses every three days and continued for the duration of the experiment. At 29 days, treatment of animals with 1 mg of A12 effected an 89% reduction in tumor growth (FIG. 25). Minimal growth was apparent for the established tumors in this treatment group.

[6] = molecular target: T2, IGF-IR; assay: FACs binding analysis to human cell lines; type: cell-based; design: endogenous in cells; HT-29; BxPC-3; HEL; conditions: 0.5 μg A12
Description: Since A12 was capable of immunoprecipitating endogenous IGF-IR, we were therefore interested in determining if A12 could also be used as detection antibody for fluorescence activated cell sorting (FACs). Human tumor cell lines were grown in culture, scraped into ice-cold PBS, and counted. Primary antibody, A12 (0.5 μg), was added to approximately 5 million cells in 250 μl PBS/5% FBS and incubated on ice for 1 hour. The cells were then diluted to 3 mls in PBS/5% FBS, pelleted, and the supernatant aspirated. Secondary phycoerythin (PE)-labeled goat anti-human IgG F(ab)2 fragment was then added in 250 μl PBS/5% FBS at 1:200 and incubated on ice for 60 minutes. Afterwards, the cells were again diluted and pelleted, as before, then resuspended in 500 μl PBS/5% FBS. FACs analysis was then performed on a Epics XL unit (Coulter). […] IGF-IR negative mouse embryo fibroblasts (R-cells) (obtained from R. Baserga, Thomas Jefferson University, Philadelphia, Pa.) served as the negative control.

[7] = molecular target: T3, mouse IGF-IR (Mus musculus, UniProt Q60751); assay: FACs binding analysis to mouse cell lines; type: cell-based; conditions: mouse tumor cell line Lewis Lung carcinoma
T3 construct: endogenous in cells; host or cells: Lewis Lung carcinoma (mouse); R- mouse embryo fibroblasts (IGF-IR negative control)
T3 sequence (Q60751 31-737 limits assumed): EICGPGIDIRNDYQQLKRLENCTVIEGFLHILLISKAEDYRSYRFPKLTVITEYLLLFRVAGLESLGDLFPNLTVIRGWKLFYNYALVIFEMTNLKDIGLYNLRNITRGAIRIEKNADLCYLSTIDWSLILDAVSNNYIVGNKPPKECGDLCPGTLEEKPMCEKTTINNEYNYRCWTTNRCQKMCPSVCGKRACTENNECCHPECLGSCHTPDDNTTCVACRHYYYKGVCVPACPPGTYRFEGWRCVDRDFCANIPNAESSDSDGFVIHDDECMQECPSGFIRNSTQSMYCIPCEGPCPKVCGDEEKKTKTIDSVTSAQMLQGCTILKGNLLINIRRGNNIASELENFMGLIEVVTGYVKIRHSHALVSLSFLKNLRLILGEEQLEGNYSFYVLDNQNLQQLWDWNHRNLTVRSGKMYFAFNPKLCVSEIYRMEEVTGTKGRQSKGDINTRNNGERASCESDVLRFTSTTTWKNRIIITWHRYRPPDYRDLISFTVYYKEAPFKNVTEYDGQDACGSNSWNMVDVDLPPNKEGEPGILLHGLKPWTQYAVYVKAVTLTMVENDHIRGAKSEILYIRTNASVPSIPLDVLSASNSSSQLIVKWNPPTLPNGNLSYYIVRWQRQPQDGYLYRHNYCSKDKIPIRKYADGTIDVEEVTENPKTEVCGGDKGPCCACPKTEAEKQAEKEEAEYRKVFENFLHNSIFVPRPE
T3 sequence (Q60751 742-1373 limits assumed): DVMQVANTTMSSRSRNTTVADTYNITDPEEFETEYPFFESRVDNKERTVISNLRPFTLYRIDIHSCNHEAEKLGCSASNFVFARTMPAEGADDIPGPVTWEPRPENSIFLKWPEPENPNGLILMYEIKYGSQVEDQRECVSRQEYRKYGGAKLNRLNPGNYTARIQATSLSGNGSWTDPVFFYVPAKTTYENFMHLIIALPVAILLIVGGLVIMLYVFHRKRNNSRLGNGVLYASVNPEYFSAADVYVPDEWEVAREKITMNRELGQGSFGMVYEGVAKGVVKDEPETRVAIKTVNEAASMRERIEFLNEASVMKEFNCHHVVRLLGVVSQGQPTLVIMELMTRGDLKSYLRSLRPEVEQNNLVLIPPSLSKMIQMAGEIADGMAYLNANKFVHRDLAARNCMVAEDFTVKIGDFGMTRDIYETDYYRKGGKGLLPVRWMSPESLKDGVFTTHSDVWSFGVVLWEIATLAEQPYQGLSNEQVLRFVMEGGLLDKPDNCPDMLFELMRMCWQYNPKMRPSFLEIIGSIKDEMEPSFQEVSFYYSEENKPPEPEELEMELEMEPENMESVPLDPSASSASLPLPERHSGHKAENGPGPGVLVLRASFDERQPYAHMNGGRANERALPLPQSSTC

[8] = tested on: mouse IGF-IR; assay: FACs binding analysis to mouse cell lines; type: cell-based; conditions: IGF-IR negative mouse embryo fibroblasts (R- cells)

shift of surface IGF-IR fluorescence intensity [1]: shift was not seen
EC50 [2]: 0.3 nM
Affinity Koff [3]: Koff = 3.0 × 10^−5
Affinity Kon [3]: Kon = 7.2 × 10^5
Kd ([3]; read-out: Affinity KD): 0.041 nM
FACs shift ([6]; HEL human leukemia cell line): fully shifted
FACs shift ([6]; MCF7 human breast cancer cell line): fully shifted
FACs shift [7]: partially shift
Substance: A12: fully human IgG1 anti-IGF-IR antibody, lambda light chain; VH SEQ ID NO:2, VL SEQ ID NO:10; affinity matured from 2F8
inhibition of MAPK phosphorylation [4]: considerably inhibited
reduction in tumor growth ([5]; 1 mg every three days, at 29 days): 89%
tumor regression ([5]; antibody alone 1 mg/dose, continued to termination (50 days)): tumor regression was observed
FACs binding [8]: failed to bind
